This is an account of results in article PMC9177983, “Mechanism of transcription modulation by the transcription-repair coupling factor”.

Broadly, the Kd is the free concentration of one partner at which half of the binding sites on the other are occupied at equilibrium, for simple one-to-one binding.

Data set [1] has as its target T1, Mfd (Escherichia coli, UniProt P30958 1-1148). The data set can be described thus: SPR; 0.5 mM ATPgS; SPR: 30 mM Tris/HCl pH 7.6, 40 mM KCl, 5 mM MgCl2, 0.005% P20, 0.25 mM EDTA, 0.5 mM DTT, 0.5 mM ATPgS, 20 C; smFRET: 20 mM Tris/HCl pH 8.0, 40 mM KCl, 5 mM MgCl2, 1 mM 2-mercaptoethanol. Particulars: protein: recombinant, tags: none stated.
Data set [2] has as its target T1, Mfd. Briefly: SPR; ATPgS; SPR: 30 mM Tris/HCl pH 7.6, 40 mM KCl, 5 mM MgCl2, 0.005% P20, 0.25 mM EDTA, 0.5 mM DTT, 0.5 mM ATPgS, 20 C; smFRET: 20 mM Tris/HCl pH 8.0, 40 mM KCl, 5 mM MgCl2, 1 mM 2-mercaptoethanol. Particulars: protein: recombinant; tags: none stated; label: 3' bioTEG on NT; 9-nt non-complementary bubble (dT9 in NT); blunt ends. (In general: SPR reads the build-up and loss of mass on a sensor chip optically.)

Another data set concerns the target Mfd;RNAP core (Escherichia coli;Escherichia coli, UniProt P30958;P0A7Z4;P0A8V2;P0A8T7;P0A800 1-1148;1-329;1-1342;1-1407;2-91, |). Briefly: SPR; 0.5 mM ATPgS; Mfd titrated onto immobilized RNAP EC; SPR: 30 mM Tris/HCl pH 7.6, 40 mM KCl, 5 mM MgCl2, 0.005% P20, 0.25 mM EDTA, 0.5 mM DTT, 0.5 mM ATPgS, 20 C; smFRET: 20 mM Tris/HCl pH 8.0, 40 mM KCl, 5 mM MgCl2, 1 mM 2-mercaptoethanol. Particulars: protein: recombinant;recombinant; tags: none stated;His; copies: 1;2;1;1;1; label: 3' bioTEG on NT; iCy3 on TS; transcription bubble with RNA:DNA hybrid.

Another data set deals with Mfd(R953A) (Escherichia coli, UniProt P30958 1-1148, R953A). The data set can be described thus: SPR; 0.5 mM ATPgS; SPR: 30 mM Tris/HCl pH 7.6, 40 mM KCl, 5 mM MgCl2, 0.005% P20, 0.25 mM EDTA, 0.5 mM DTT, 0.5 mM ATPgS, 20 C; smFRET: 20 mM Tris/HCl pH 8.0, 40 mM KCl, 5 mM MgCl2, 1 mM 2-mercaptoethanol. Particulars: protein: recombinant; tags: none stated; label: 5' biotin on AS18; 5' overhang 6 nt (template).

B1: dT15_S18:bio_AS18 (dsDNA)
DNA 1: TTTTTTTTTTTTTTTGCCTCGCTGCCGTCGCCA
DNA 2: TGGCGACGGCAGCGAGGC
Turning to B1, the dissociation constant (Kd) in the data set with Mfd [1] (label: 5' biotin on AS18, 5' overhang 15 nt (template)) turned out to be 220 ± 10 nM.

B2: bio_dT40_S18 58-mer ssDNA (ssDNA)
DNA: TTTTTTTTTTTTTTTTTTTTTTTTTTTTTTTTTTTTTTTTGCCTCGCTGCCGTCGCCA
Consider B2, for which the Kd with Mfd [1] (label: 5' biotin, single strand) was ~4000 nM.

B3: dT40_S18:bio_AS18 (dsDNA)
DNA 1: B2 DNA
DNA 2: TGGCGACGGCAGCGAGGC
Take B3: the dissociation constant Kd with Mfd [1] (label: 5' biotin on AS18, 18 bp with 5' overhang 40 nt) is 300 ± 10 nM.

B4: Cy3_dT40_S18:bio_AS18_Cy5 (dsDNA)
DNA 1: B2 DNA
DNA 2: TGGCGACGGCAGCGAGGC
As to B4, the Kd in the data set with Mfd [1] (label: 5' Cy3, 5' biotin and 3' Cy5 on AS18, 18 bp with 5' overhang 40 nt) amounted to 390 ± 10 nM.

B5: NT_49_bio:TS_49 (dsDNA)
DNA 1: CACTACTGCGACTTACAGACATCGAGAGGGTAATGGCGAATAGCACTGA
DNA 2: TCAGTGCTATTCGCCATTACCCTCTCGATGTCTGTAAGTCGCAGTAGTG
modifications: internal Cy3 in TS_49 after nt 31
B5: the Kd in the data set with Mfd [1] (label: 3' bioTEG on NT, iCy3 on TS, blunt) was determined as 170 ± 20 nM.

B6: 49-mer with 9-nt bubble (NT_49_bio_bubble:TS_49) (dsDNA)
DNA 1: CACTACTGCGACTTACAGACTTTTTTTTTGTAATGGCGAATAGCACTGA
DNA 2: B5 DNA 2
As to B6, the equilibrium dissociation constant (Kd) in the data set with Mfd [2] came out at 395 ± 7 nM.

B7: EC scaffold 49-mer (TS_49:NT_49_bio:RNA_15) (mixed)
DNA 1: B5 DNA 2
DNA 2: B5 DNA 1
RNA: AUAUAUAUCGAGAGG
modifications: internal Cy3 in TS_49 after nt 31
B7: the dissociation constant Kd with Mfd;RNAP core turned out to be 127 ± 6 nM.

B8: dT6_S18:bio_AS18 (dsDNA)
DNA 1: TTTTTTGCCTCGCTGCCGTCGCCA
DNA 2: TGGCGACGGCAGCGAGGC
As to B8, the binding signal in the data set with Mfd(R953A) is 2.3 fold weaker Kd than wild type.

B9: S18:bio_AS18 (dsDNA)
DNA 1: GCCTCGCTGCCGTCGCCA
DNA 2: TGGCGACGGCAGCGAGGC
Regarding B9, the Kd with Mfd [1] (label: 5' biotin on AS18, blunt) is 90 ± 4 nM.
